Data: patent publication US6291645

Biological target: GST.119-224 (glutathione S-transferase fusion protein of the SH2 domain, residues 119-224, of p56^lck) (not provided)
Assay: competition of peptide with p62 in the GST.119-224 pull-down from HeLa lysate

Row | Substance | concentration that competed away p62 binding [mM]
1 | pY324 phosphotyrosyl peptide (derived from polyoma middle T antigen) | 1
2 | pY505 phosphotyrosyl peptide (derived from the C-terminal negative regulatory region of p56^lck) | 15
